Biological target: T1, rat antibody hybridoma clone M7/1 (EMAP II neutralizing M7/1 antibody)
T1 construct: Rat monoclonal IgG from a hybridoma; also called rat monoclonal neutralizing antibody M7
Test: description in the sequence table

T1 sequence (VH, as listed by the source, chain 1 of 2): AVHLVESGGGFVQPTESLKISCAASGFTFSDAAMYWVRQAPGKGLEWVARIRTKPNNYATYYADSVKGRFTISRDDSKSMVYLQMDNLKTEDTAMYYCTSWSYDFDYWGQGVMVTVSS
T1 sequence (VL, as listed by the source, chain 2 of 2): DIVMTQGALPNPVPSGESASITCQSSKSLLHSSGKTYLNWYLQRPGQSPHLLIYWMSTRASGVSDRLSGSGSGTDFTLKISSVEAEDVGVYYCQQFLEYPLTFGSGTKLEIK

B1: Peptide 2 (QQSIAGSADSKPIDVSR) (peptide)
peptide: QQSIAGSADSKPIDVSR
notes: Synthetic peptide from human EMAP II; also called ID NO; 12
binding result: binds

From patent US20200040069A1 (INDIANA UNIVERSITY RESEARCH AND TECHNOLOGY, published 2020)
